Assay [1] has as its target T1, recombinant soluble trimeric 1918 H1 HA (A/South Carolina/1/1918, wild type) (Influenza A virus A/South …, UniProt Q9WFX3 18-529). Nature of the assay: ELISA, supernate.
The target of assay [2] is T2, recombinant soluble 1968 H3 HA (A/Aichi/2/1968) (Influenza A virus A/Aichi/2/1968 (H3N2), UniProt P03437 17-530). Nature of the assay: ELISA, supernate.
Assay [3] addresses HA of A/South Carolina/1/1918 (H1N1), wild type, on VLP (Influenza A virus A/South …, UniProt Q9WFX3 18-566). Nature of the assay: cell-based or functional assay.
The target in assay [4] is HA of A/swine/Iowa/15/1930 (H1N1) virus (Influenza A virus (H1N1)). Nature of the assay: cell-based or functional assay.
Assay [5] addresses HA of A/Weiss/1943 (H1N1) virus (Influenza A virus (H1N1)). Nature of the assay: cell-based or functional assay.
In assay [6] the target is HA of A/L3/1947 (H1N1) virus (Influenza A virus (H1N1)). Put plainly: cell-based or functional assay.
Assay [7] has as its target HA of A/New Jersey/11/1976 (H1N1) virus (Influenza A virus (H1N1)). Nature of the assay: cell-based or functional assay.
The target in assay [8] is HA of A/USSR/92/1977 (H1N1) virus (Influenza A virus (H1N1)). Put plainly: cell-based or functional assay.
Assay [9] addresses HA of A/New Caledonia/20/1999 (H1N1) virus (Influenza A virus (H1N1)). Nature of the assay: cell-based or functional assay.
Assay [10] addresses HA of A/Brisbane/59/2007 (H1N1) virus (Influenza A virus (H1N1)). Nature of the assay: cell-based or functional assay.
Assay [11] addresses T3, HA of A/California/04/2009 (H1N1) virus (Influenza A virus (H1N1)). Nature of the assay: cell-based or functional assay.
Assay [12] has as its target T2, recombinant soluble 1968 H3 HA …. Nature of the assay: ELISA, unconcentrated supernate. Background: ELISA stands for enzyme-linked immunosorbent assay.
Assay [13] has as its target T1, recombinant soluble trimeric 1918 H1 HA …. Nature of the assay: ELISA, supernate. This is another data set of the same source.
Assay [14] shares this target. Put plainly: ELISA, supernate. This is another data set of the same source.
The target in assay [15] is T2, recombinant soluble 1968 H3 HA …. Nature of the assay: ELISA, supernate. This is another data set of the same source.
Assay [16] has the same target. Nature of the assay: ELISA, recombinant mAb.
For assay [17] the target is unchanged. Put plainly: ELISA, supernate. The source holds these as a separate data set.
In assay [18] the target is HA of A/Japan/305/1957 (H2N2) virus (Influenza A virus (H2N2), UniProt P03451 16-562). Nature of the assay: cell-based or functional assay.
Assay [19] addresses HA of A/Ann Arbor/23/1957 (H2N2) virus (Influenza A virus (H2N2)). Nature of the assay: cell-based or functional assay.
Assay [20] concerns the target HA of A/Rockville Illinois/5/1957 (H2N2) virus (Influenza A virus (H2N2)). Put plainly: cell-based or functional assay.
Assay [21] addresses HA of A/Albany/6/1958 (H2N2) virus (Influenza A virus (H2N2)). Nature of the assay: cell-based or functional assay.
Assay [22] deals with HA of A/Netherlands/65/1963 (H2N2) virus (Influenza A virus (H2N2)). Nature of the assay: cell-based or functional assay.
Assay [23] concerns the target HA of A/Ann Arbor/7/1967 (H2N2) virus (Influenza A virus (H2N2)). Nature of the assay: cell-based or functional assay.
Assay [24] deals with HA of A/swine/Missouri/2124514/2006 (H2N3) virus (Influenza A virus (H2N3)). Put plainly: cell-based or functional assay.
Assay [25] has as its target HA of A/Hong Kong/1/1968 (H3N2) virus (Influenza A virus (H3N2), UniProt Q91MA7 17-566). Nature of the assay: cell-based or functional assay.
Assay [26] addresses HA of A/Alabama/1/1981 (H3N2) virus (Influenza A virus (H3N2)). Put plainly: cell-based or functional assay.
For assay [27], the target named is T3, HA of A/California/04/2009 (H1N1) virus. Nature of the assay: cell-based or functional assay. This is another data set of the same source.
The target in assay [28] is HA of A/Vietnam/1203/2004 (H5N1) virus (Influenza A virus (H5N1)). Nature of the assay: cell-based or functional assay.

Read-outs that look alike come from different tables or passages of the source. Where only a bound is given, the exact number is not on record here.

B1: mAb 5J8 (antibody, V domains shown)
VH: EVQLVESGPGLVKPSDILSLTCAVSGYSISSNYYWGWIRQPPGKGLEWIGSIYHSGSTYYKPSLESRLGISVDTSKNQFSLKLSFVSAADTAVYYCARHVRSGYPDTAYYFDKWGQGTLVTVS
VL: SYVLTQPPSVSVAPGETARISCGGNNIGTKVLHWYQQTPGQAPVLVVYDDSDRPSGIPERFSGSNSGNTATLTISRVEVGDEADYYCQVWDISTDQAVFGGGTKLTVLG
For B1, the OD in [1] was determined as 0.262 OD; in [2] it was 0.078 OD. Moreover, the HAI activity is 0.04 µg/mL in assay [3]; 0.04 µg/mL in assay [4]; 5 µg/mL in assay [5]; 0.08 µg/mL in assay [6]; 0.32 µg/mL in assay [7]; 0.63 µg/mL in assay [8]. In addition, the HAI activity was above 20 µg/mL in assay [9], above 20 µg/mL in assay [10] and 0.09 µg/mL in assay [11]. Moreover, the Neut titer in [4] is below 0.025 µg/mL; in assay [5] it was 10 µg/mL; in assay [6], 0.1 µg/mL; in assay [8], 0.2 µg/mL; in assay [9], above 20 µg/mL; in assay [11] it was 0.0017 µg/mL. The binding result in assay [12] is “no binding”.

B2: mAb 6J24 (antibody, V domains shown)
VH: EVQLVESGGGLVQPGRSLRLSCVGSGFNFDGYAMQWVRQVPGKGLEWVSGISWHSDSTGYADSVRGRFTISRDNAKNSLYLQMDSLRPEDTAFYYCGKSIGHVGGSYRHPIDYWGQGTLVTVS
VL: DIQLTQSPSSLSASVGDRVTITCRASQGITDYLAWYQQKPGTIPKLLIYAASTLQSGVPSRFSGGGYGTDFTLTISSLQPEDVATYYCQKYNSAPLTFGGGTKVEIKR
B2: the OD in assay [13] was 0.072 OD.

B3: mAb 3E22 (antibody, V domains shown)
VH: EVQLVESGAEVKKPGASVKVSCKASGYTFSRYYIHWVRQAPGQELEWMGWINPDSGDTNYAQKFRGRVTMARDTSISTVYMELNSLRYDDTAVYFCARIIWSSSGMDVWGQGTTVTVS
VL: QSALTQPASVSGSPGQSITISCTGTSSDVGSYNLVSWYQQHPGKAPKLMIYEVSKRPSGVSNRFSGSKSGNTASLTISGLQAEDEADYYCHLYVGSSNWVFGGGTKLAVLG
Consider B3, for which the OD amounted to 0.741 OD in [14] and 0.379 OD in assay [15].

B4: mAb 3N6 (recombinant) (antibody, V domains shown)
VH: QVQLQESGPGLVKPSETLSLTCSVSGGSINYYYWSWIRQPPGKGLECIGYISDTGRTYYNPSLRSRVTISVDTSKNQFSLNLTSMTAADTAVYYCARDPTGSRQKNAFDMWGQGTMVTVS
VL: AIQMTQSPSSLSASVGDRVTITCRASQNIRSYLNWYQQKPGKAPNLLIYGTTSLESGVPSRFSGSGSGTDFTLTISSLQPEDFATYYCQQSYHTPQTFGQGTKVEIKR
Regarding B4, the OD in assay [16] worked out at 0.069 OD.

B5: mAb 10E15 (antibody, V domains shown)
VH: EVQLLESGGGVVQPGRSLRLSCAASGFTFRTYGMHWVRQAPGKGLEWVAVISHDGNLKYYGGSVKGRFTISRDNSKNALYLQMNSLRVDDTALYYCARGIGITDAFDIRGQGTMVVVS
VL: QSVLTQPPSVSAAPGQKVTISCSGSSSNIGKNYVSWYQQLPGTAPKLLIYDNDKRPSGIPDRFSGSKSGTSATLGITGLQTGDEADYHCGAWDSSLNGGVFGGGTKVTVLG
Take B5: in assay [17], the OD turned out to be 0.074 OD.

B6: mAb 2G1 (antibody, V domains shown)
VH: EVQLVESGAEVKKPGSSVKVSCKASGGTFITHVFTWVRQAPGQGLEWVGGFIAIFGTSNYAQKFQGRVTITADESTSTAYMELTSLTSEDTAVYYCARGISGSYGWFDPWGQGTLVTVS
VL: DIQLTQSPSSLSASVGDRVTITCQASQDIRKYLNWYQQKPGKAPNLLIYDASNVKTGVPSRFRGSGSGTDFTFTISSLQPEDIATYYCQQYDNLPITFGQGTRLEIKR
Turning to B6, the HAI activity is 0.7 µg/mL in assay [18]; 0.025 µg/mL in [19]; 0.2 µg/mL in assay [20]; 0.32 µg/mL in assay [21]; 0.05 µg/mL in assay [22]; above 20 µg/mL in assay [23]. For the same molecule, the HAI activity in assay [24] was 0.63 µg/mL; in [25], 5 µg/mL; in assay [26], above 50 µg/mL; in assay [27], above 50 µg/mL; in assay [28] it was above 50 µg/mL.
